This passage reports Kd results from patent publication US20220332804A1 (CSL INNOVATION, published 2022).

Holding throughout (test): SPR, mAb captured, C2 mutant analyte;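 further: Anti-C2 mAbs captured on goat anti-human IgG Biacore CM5 chips, alanine or serine C2 surface mutants flowed over at 37 °C, double-referenced sensorgrams fitted to a 1:1 binding model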
On the technique in general: Surface plasmon resonance follows binding to a sensor surface in real time, without labels.

For one test, the target named is T1, human C2 K329A (human, UniProt P06681 21-752).
T1 sequence: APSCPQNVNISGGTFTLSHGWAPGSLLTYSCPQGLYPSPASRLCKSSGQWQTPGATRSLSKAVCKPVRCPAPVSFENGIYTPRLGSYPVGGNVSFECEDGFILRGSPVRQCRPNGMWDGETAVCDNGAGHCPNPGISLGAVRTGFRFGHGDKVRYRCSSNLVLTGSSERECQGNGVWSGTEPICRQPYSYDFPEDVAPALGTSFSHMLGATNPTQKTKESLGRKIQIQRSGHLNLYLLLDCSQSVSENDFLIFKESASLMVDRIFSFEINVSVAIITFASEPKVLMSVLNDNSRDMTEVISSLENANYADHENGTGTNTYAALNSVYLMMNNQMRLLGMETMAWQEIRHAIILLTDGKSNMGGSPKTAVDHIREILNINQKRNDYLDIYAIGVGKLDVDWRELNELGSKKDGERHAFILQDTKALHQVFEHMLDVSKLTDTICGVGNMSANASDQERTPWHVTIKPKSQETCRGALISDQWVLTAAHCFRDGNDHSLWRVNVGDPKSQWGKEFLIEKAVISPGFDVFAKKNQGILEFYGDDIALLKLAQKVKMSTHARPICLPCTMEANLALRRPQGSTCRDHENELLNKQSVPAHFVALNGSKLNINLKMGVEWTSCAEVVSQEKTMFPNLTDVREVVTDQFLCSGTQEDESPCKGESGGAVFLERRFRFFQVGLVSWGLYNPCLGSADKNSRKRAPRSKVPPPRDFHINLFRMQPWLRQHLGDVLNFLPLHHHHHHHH

Another test deals with T2, human C2 K415A (human, UniProt P06681 21-752).
T2 sequence: T1 sequence with A309K, K395A

A further test concerns the target T3, human C2 N467A (human, UniProt P06681 21-752).
T3 sequence: T1 sequence with A309K, N447A

The target of the next test is T4, human C2 V465A (human, UniProt P06681 21-752).
T4 sequence: T1 sequence with A309K, V445A

Where a chain is given by its changes, count along the chain named.

B1: RF16-214 (antibody, V domains shown)
VH: EVQLLESGGGLVQPGGSLRLSCAASGFTFSWYQMMWVRQAPGKGLEWVSRIYPSGGGTAYADSVKGRFTISRDNSKNTLYLQMNSLRAEDTAVYYCARDAGYGDNWGQGTLVTVSS
VL: QSALTQPPSVSVSPGQTASITCSGDKLGEKYASWYQQKAGQSPVMVIYQDRKRPSGIPERFSGSNSGNTATLTISGTQAMDEADYYCQAWDTRAVVFGGGTKLTVLG
As usually defined, the Kd is a measure of binding affinity in units of concentration. Regarding B1, the Kd in the test with human C2 K329A is 0.0626 µM; with human C2 K415A, 0.046 µM; with human C2 N467A, 0.0772 µM; with human C2 V465A, 0.0727 µM.
